Test results taken from patent publication US20060204957A1 (published 2006).

T1: Estrogen Receptor α (ER) (UniProt P03372 1-595)
T1 construct: Endogenous intracellular receptor in breast cancer cell lysates, and ER where no construct is named; also called ERα; endogenous ER
T1 sequence (looked up): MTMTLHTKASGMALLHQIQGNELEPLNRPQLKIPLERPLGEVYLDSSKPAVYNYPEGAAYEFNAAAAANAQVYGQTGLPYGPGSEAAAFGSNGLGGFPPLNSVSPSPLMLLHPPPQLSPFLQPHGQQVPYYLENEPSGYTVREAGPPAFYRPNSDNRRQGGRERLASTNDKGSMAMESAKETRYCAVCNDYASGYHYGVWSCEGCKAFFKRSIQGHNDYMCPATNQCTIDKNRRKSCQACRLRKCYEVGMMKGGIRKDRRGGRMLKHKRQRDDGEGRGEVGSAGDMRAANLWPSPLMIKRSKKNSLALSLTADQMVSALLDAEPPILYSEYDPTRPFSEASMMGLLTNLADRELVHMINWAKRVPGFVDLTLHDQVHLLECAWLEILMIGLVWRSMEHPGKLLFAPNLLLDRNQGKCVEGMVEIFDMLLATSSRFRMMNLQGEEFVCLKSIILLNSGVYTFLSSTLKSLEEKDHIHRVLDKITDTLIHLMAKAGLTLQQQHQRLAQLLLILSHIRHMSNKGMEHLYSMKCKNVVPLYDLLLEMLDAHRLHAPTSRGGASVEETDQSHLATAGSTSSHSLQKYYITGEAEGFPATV

T2: GAD-ERα (UniProt P03372 1-536)
T2 construct: range 1-536; Yeast two-hybrid prey; also called GAD-ERα amino acids 1-536
T2 sequence (looked up): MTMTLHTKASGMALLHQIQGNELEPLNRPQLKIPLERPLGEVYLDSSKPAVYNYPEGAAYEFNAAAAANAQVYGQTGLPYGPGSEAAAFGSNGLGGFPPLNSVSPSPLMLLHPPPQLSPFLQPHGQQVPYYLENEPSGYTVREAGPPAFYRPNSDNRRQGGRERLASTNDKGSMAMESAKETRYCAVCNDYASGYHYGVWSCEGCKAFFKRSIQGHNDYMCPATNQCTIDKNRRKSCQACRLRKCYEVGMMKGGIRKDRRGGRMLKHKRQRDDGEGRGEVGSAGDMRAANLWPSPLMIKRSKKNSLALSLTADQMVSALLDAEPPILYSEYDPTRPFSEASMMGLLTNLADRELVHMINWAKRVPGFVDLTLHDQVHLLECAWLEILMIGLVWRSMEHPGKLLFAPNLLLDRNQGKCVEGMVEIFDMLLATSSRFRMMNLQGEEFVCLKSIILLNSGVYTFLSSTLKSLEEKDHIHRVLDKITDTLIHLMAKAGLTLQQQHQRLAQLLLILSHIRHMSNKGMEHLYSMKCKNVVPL

T3: bifunctional ATP sulfurylase/adenosine 5'-phosphosulfate (APS) kinase (UniProt O43252 1-624, limits assumed)
T3 construct: Two-hybrid isolate
T3 sequence (looked up): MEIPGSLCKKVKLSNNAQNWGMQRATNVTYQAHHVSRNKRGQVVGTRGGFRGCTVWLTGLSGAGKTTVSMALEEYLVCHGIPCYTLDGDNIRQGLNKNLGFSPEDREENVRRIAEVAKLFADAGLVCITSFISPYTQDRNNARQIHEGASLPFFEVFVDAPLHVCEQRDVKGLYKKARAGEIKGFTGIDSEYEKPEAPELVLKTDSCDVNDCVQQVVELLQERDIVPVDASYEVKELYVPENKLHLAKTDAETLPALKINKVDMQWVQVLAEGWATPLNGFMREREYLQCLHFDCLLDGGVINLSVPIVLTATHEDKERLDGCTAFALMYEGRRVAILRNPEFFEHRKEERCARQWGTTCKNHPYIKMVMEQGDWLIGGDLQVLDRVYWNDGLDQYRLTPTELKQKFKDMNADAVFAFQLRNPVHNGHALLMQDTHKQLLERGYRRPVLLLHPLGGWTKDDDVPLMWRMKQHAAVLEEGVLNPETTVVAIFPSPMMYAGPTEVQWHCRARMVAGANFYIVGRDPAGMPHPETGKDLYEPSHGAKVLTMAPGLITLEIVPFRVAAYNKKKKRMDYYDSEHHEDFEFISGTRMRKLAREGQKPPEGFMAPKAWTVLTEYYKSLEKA

B1: GST-AF2 domain of the ER (receptor, UniProt P03372 282-595, looked up)
chain: SAGDMRAANLWPSPLMIKRSKKNSLALSLTADQMVSALLDAEPPILYSEYDPTRPFSEASMMGLLTNLADRELVHMINWAKRVPGFVDLTLHDQVHLLECAWLEILMIGLVWRSMEHPGKLLFAPNLLLDRNQGKCVEGMVEIFDMLLATSSRFRMMNLQGEEFVCLKSIILLNSGVYTFLSSTLKSLEEKDHIHRVLDKITDTLIHLMAKAGLTLQQQHQRLAQLLLILSHIRHMSNKGMEHLYSMKCKNVVPLYDLLLEMLDAHRLHAPTSRGGASVEETDQSHLATAGSTSSHSLQKYYITGEAEGFPATV
notes: domain: AF2 domain; Immobilized on glutathione-sepharose beads; also called AF2 domain of ERα; not shown: glutathione S-transferase
B2: T7-MTA1sstop (other, not shown: small tags and cut ends)
chain: MAANMYRVGDYVYFENSSSNPYLIRRIEELNKTANGNVEAKVVCFYRRRDISSTLIALADKHATLSVCYKAGPGADNGEEGEIEEEMENPEMVDLPEKLKHQLRHRELFLSRQLESLPATHIRGKCSVTLLNETESLKSYLEREDFFFYSLVYDPQQKTLLADKGEIRVGNRYQADITDLLKEGEEDGRDQSRLETQVWEAHNPLTDKQIDQFLVVARSVGTFARALDCSSSVRQPSLHMSAAAASRDITLFHAMDTLHKNIYDISKAISALVPQGGPVLCRDEMEEWSASEANLFEEALEKYGKDFTDIQQDFLPWKSLTSIIEYYYMWKTTDRYVQQKRLKAAEAESKLKQVYIPNYNKPNPNQISVNNVKAGVVNGTGAPGQSPGAGRACESCY
notes: Expressed in MCF-7 cells for immunoprecipitation with T7-mAb; also called T7-tagged MTA1s-stop
B3: MTA1s-stop (other)
chain: B2 chain
B4: T7-MTA1sdel (other, not shown: small tags and cut ends)
chain: MAANMYRVGDYVYFENSSSNPYLIRRIEELNKTANGNVEAKVVCFYRRRDISSTLIALADKHATLSVCYKAGPGADNGEEGEIEEEMENPEMVDLPEKLKHQLRHRELFLSRQLESLPATHIRGKCSVTLLNETESLKSYLEREDFFFYSLVYDPQQKTLLADKGEIRVGNRYQADITDLLKEGEEDGRDQSRLETQVWEAHNPLTDKQIDQFLVVARSVGTFARALDCSSSVRQPSLHMSAAAASRDITLFHAMDTLHKNIYDISKAISALVPQGGPVLCRDEMEEWSASEANLFEEALEKYGKDFTDIQQDFLPWKSLTSIIEYYYMWKTTDRYVQQKRLKAAEAESKLKQVYIPNYNKPNPNQISVNNVKAGVVNGTGAPGQSPGAGRACESCYMSSDILEEIWWLENANPVRWREARTKPQ
notes: Expressed in MCF-7 cells for immunoprecipitation with T7-mAb; also called T7-tagged MTA1s-del
B5: MTA1s-del (other)
chain: B4 chain
B6: MTA1s (other)
chain: MAANMYRVGDYVYFENSSSNPYLIRRIEELNKTANGNVEAKVVCFYRRRDISSTLIALADKHATLSVCYKAGPGADNGEEGEIEEEMENPEMVDLPEKLKHQLRHRELFLSRQLESLPATHIRGKCSVTLLNETESLKSYLEREDFFFYSLVYDPQQKTLLADKGEIRVGNRYQADITDLLKEGEEDGRDQSRLETQVWEAHNPLTDKQIDQFLVVARSVGTFARALDCSSSVRQPSLHMSAAAASRDITLFHAMDTLHKNIYDISKAISALVPQGGPVLCRDEMEEWSASEANLFEEALEKYGKDFTDIQQDFLPWKSLTSIIEYYYMWKTTDRYVQQKRLKAAEAESKLKQVYIPNYNKPNPNQISVNNVKAGVVNGTGAPGQSPGAGRACESCYMSSLRILLDILEEIWWLENANPVRWREARTKPQ
notes: also called MTA1s (short); S2 clone
B7: LMO4 (other, UniProt P61968 1-165, looked up)
chain: MVNPGSSSQPPPVTAGSLSWKRCAGCGGKIADRFLLYAMDSYWHSRCLKCSCCQAQLGDIGTSCYTKSGMILCRNDYIRLFGNSGACSACGQSIPASELVMRAQGNVYHLKCFTCSTCRNRLVPGDRFHYINGSLFCEHDRPTALINGHLNSLQSNPLLPDQKVC
notes: Two-hybrid isolate; also called LIM 04; LIM04
B8: Casein Kinase 1, γ2 (enzyme)
chain: not shown
notes: Two-hybrid isolate; also called clone S55-1

What was measured:
MTA1s-stop = biological target: B3; assay: GST pull-down (FIG. 4C)
MTA1s-del = biological target: B5; assay: GST pull-down (FIG. 4C)
Estrogen Receptor α (ER) = biological target: T1, Estrogen Receptor α (ER); assay: immunoprecipitation with T7-mAb, immunoblot for ERα (FIG. 4D)
GAD-ERα = biological target: T2, GAD-ERα; assay: yeast two-hybrid (FIG. 4B)
[1] = biological target: T3, bifunctional ATP sulfurylase/adenosine …; assay: yeast two-hybrid screen for MTA1s-interacting proteins
[2] = biological target: T4, Homologs to eukaryotic translation initiation factor 3, subunit 6 (48 kD) (UniProt P60228 1-445, limits assumed); assay: FIG. 14 legend
T4 construct: Two-hybrid isolate; also called Cone S 64-1

MTA1s = biological target: B6; assay: FIG. 14 legend

T4 sequence (P60228 whole entry): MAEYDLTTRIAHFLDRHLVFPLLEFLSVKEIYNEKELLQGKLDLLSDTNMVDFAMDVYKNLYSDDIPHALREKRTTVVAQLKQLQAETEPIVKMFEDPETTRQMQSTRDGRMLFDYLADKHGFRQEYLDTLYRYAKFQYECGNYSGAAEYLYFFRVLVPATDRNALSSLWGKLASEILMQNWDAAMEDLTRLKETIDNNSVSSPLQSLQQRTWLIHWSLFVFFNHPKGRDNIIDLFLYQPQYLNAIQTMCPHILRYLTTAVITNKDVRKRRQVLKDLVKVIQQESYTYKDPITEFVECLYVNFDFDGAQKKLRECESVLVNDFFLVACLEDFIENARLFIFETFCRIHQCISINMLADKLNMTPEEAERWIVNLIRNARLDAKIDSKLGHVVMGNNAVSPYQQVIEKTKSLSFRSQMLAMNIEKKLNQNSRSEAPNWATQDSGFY

Binder: B1
binding result (MTA1s-stop): no binding
binding result (MTA1s-del): no binding

Binder: B2
binding result (Estrogen Receptor α (ER)): no binding

Binder: B3
binding result (GAD-ERα): no binding

Binder: B4
binding result (Estrogen Receptor α (ER)): no binding

Binder: B5
binding result (GAD-ERα): no binding

Binder: B6
binding result [1]: binds
binding result [2]: binds

Binder: B7
binding result (MTA1s): binds

Binder: B8
binding result (MTA1s): binds
